Laboratory results published in PMC3485190, “Crystal Structures of Lysine-Preferred Racemases, the Non-Antibiotic Selectable Markers for Transgenic Plants” (PLoS ONE, 2012).

Key:
[1] = target: T1, Bar (broad-specificity amino acid racemase) (Pseudomonas putida, UniProt I6LNY0); assay: X-ray crystallography, […] Å; format: binding; conditions: co-crystallized with 4 mM L-lysine, pH 9.0; covalent external aldimine with PLP
T1 construct: homodimer; first 25 residues (signal peptide) removed by auto-cleavage
T1 sequence (I6LNY0 26-409): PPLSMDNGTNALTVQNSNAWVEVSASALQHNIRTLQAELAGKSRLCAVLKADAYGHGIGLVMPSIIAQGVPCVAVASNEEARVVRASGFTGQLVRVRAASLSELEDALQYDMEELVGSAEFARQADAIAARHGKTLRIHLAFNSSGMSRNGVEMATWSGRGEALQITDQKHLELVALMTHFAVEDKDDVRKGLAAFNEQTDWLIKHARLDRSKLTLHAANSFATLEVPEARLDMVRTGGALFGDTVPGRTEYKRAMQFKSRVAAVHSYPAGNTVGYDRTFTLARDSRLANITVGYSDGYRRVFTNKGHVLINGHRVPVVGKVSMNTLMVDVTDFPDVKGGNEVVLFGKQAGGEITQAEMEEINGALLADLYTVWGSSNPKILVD

NCCCC[C@H](N)C(=O)O = system: T2, NCCCC[C@H](N)C(=O)O; assay: steady-state racemization, chiral HPLC; format: biochemical, Pseudomonas putida; conditions: 100 mM CHES-NaOH pH 9.0, 30 µM PLP, 50°C
T2 construct: homodimer; first 25 residues (signal peptide) removed by auto-cleavage
Text: steady-state racemization, chiral HPLC on Bar (broad-specificity amino acid racemase)

[2] = target: T1, Bar (broad-specificity amino acid racemase); assay: X-ray crystallography, […] Å; format: binding; conditions: covalent, internal aldimine with Lys75; pH 8.5
[3] = target: the molecule itself; assay: crystal structure; apo Bar (4.7 mg/ml in 10% glycerol), sitting-drop vapor diffusion at 20°C, 0.1 M Tris-HCl pH 8.5, 2.0 M ammonium sulfate; space group C2, two molecules per asymmetric unit; 2.45 Å
[4] = substrate: N=C(N)NCCC[C@H](N)C(=O)O; assay: steady-state racemization, chiral HPLC; format: biochemical, Proteus mirabilis; conditions: 100 mM CHES-NaOH pH 9.0, 30 µM PLP, 50°C
Text: (§1) steady-state racemization, chiral HPLC on Lyr (lysine racemase)

[5] = substrate: NCCCC[C@H](N)C(=O)O; assay: steady-state racemization, chiral HPLC; format: biochemical, Proteus mirabilis; conditions: 100 mM CHES-NaOH pH 9.0, 30 µM PLP, 50°C
Text: as §1

[6] = target: the molecule itself; assay: crystal structure; Lyr (2.5 mg/ml), sitting-drop vapor diffusion at 20°C, 0.1 M sodium acetate pH 4.6, 0.05 M lithium chloride, 29% PEG 8000; space group C222(1), one molecule per asymmetric unit, dimer by a crystallographic two-fold axis; 1.74 Å

## NCCCC[C@H](N)C(=O)O [L-Lys]
[1]
  X-ray crystallography, 3.10 Å: The complex-Bar structure was established (Figure 7A, B) by co-crystallizing Bar with L-lysine.

## Bar (broad-specificity amino acid racemase) (Pseudomonas putida; A393Y)
NCCCC[C@H](N)C(=O)O
  Km: 33.9 ± 3.5 mM
  kcat: 24.3 ± 2.18 s⁻¹
  kcat/Km: 715 M⁻¹ s⁻¹

## Cc1ncc(COP(=O)(O)O)c(C=O)c1O [PLP]
[2]
  X-ray crystallography, 2.45 Å: fit with an aldimine bond between the Lys75 Nζ and the PLP C4A

B1: Broad-specificity amino acid racemase (Bar) from Pseudomonas putida DSM84 (enzyme, UniProt I6LNY0 26-409, looked up)
chain: PPLSMDNGTNALTVQNSNAWVEVSASALQHNIRTLQAELAGKSRLCAVLKADAYGHGIGLVMPSIIAQGVPCVAVASNEEARVVRASGFTGQLVRVRAASLSELEDALQYDMEELVGSAEFARQADAIAARHGKTLRIHLAFNSSGMSRNGVEMATWSGRGEALQITDQKHLELVALMTHFAVEDKDDVRKGLAAFNEQTDWLIKHARLDRSKLTLHAANSFATLEVPEARLDMVRTGGALFGDTVPGRTEYKRAMQFKSRVAAVHSYPAGNTVGYDRTFTLARDSRLANITVGYSDGYRRVFTNKGHVLINGHRVPVVGKVSMNTLMVDVTDFPDVKGGNEVVLFGKQAGGEITQAEMEEINGALLADLYTVWGSSNPKILVD
modifications: PLP bound to Lys75 by an internal aldimine bond (apo crystal); in the crystal with L-lysine PLP forms the external aldimine with the substrate
notes: Broad-specificity amino acid racemase (Bar, E.C. 5.1.1.10), Pseudomonas putida DSM84, gene bar amplified from chromosomal DNA into pET21a; the first 25 residues contained the signal peptide and were removed by auto-cleavage; Head-to-tail homodimer in the crystal (two molecules in the asymmetric unit); also called wild-type Bar; complex-Bar (with L-lysine)
[3]
  stoichiometry N: 2

B2: Lysine racemase (Lyr) from Proteus mirabilis BCRC10725 (enzyme)
chain: CQQPVNYNPPATQVAQVQPAIVNNSWIEISRSALDFNVKKVQSLLGKQSSLCAVLKGDAYGHDLSLVAPIMIENNVKCIGVTNNQELKEVRDLGFKGRLMRVRNATEQEMAQATNYNVEELIGDLDMAKRLDAIAKQQNKVIPIHLALNSGGMSRNGLEVDNKSGLEKAKQISQLANLKVVGIMSHYPEEDANKVREDLARFKQQSQQVLEVMGLERNNVTLHMANTFATITVPESWLDMVRVGGIFYGDTIASTDYKRVMTFKSNIASINYYPKGNTVGYDRTYTLKRDSVLANIPVGYADGYRRVFSNAGHALIAGQRVPVLGKTSMNTVIVDITSLNNIKPGDEVVFFGKQGNSEITAEEIEDISGALFTEMSILWGATNQRVLVD
notes: also called wild-type Lyr
[4]
  Km: 14.9 ± 1.0 mM
  kcat: 10.8 ± 0.583 s⁻¹
  kcat/Km: 727 M⁻¹ s⁻¹
[5]
  Km: 21.8 ± 0.5 mM
  kcat: 55.4 ± 1.13 s⁻¹
  kcat/Km: 2540 M⁻¹ s⁻¹
[6]
  stoichiometry N: 2
